Reference: PMC2778690
Where two headings read alike, the source gives them in different places.

Key:
[1] = target: Human Bax alpha (human) (UniProt Q07812); assay: cross-linking
[2] = target: Human Bax alpha (human) (UniProt Q07812); assay: cross-linking; remark: listed apart in the source

Human Bax alpha (from UniProt Q07812 1-192) (natural protein)
stoichiometry N [1]: 2 | stoichiometry N [2]: < 8
